Test results as given in patent publication US10227617B2, “Sequestration of carbon dioxide with hydrogen to useful products” (UNIVERSITY OF GEORGIA RESEARCH FOUNDATION, INC., priority 2012, dated 2019).
Values after ≈ are worked out from the molar mass of the structure shown.

How the values were obtained:
[1] = 70° C and 1 atm; cited from earlier work
O=C(O)CCCO = assay: acyl-CoA ligase activity of mutant Msed_1353-G424, discontinuous DTNB assay; type: biochemical, Metallosphaera sedula; settings: other: Msed_1353-G424, 75° C., pH 7.9
From the text: In one embodiment, an example of a polypeptide having 4-hydroxybutyrate:CoA ligase activity is an amino acid sequence encoded by coding sequence Msed_1353 of Genbank accession NC_009440 and disclosed at SEQ ID NO:18, provided that the amino acid at residue 424 is not the tryptophan present in a wild type Msed_1353. In one embodiment, the amino acid at residue 424 is alanine, valine, leucine, isoleucine, or glycine. In one embodiment, the amino acid at residue 424 is alanine, valine, leucine, glycine. In one embodiment, the amino acid at residue 424 is glycine. The amino acid sequence disclosed at SEQ ID NO:18 includes the substitution of glycine for tryptophan. Another example is a polypeptide having structural similarity to the amino acid sequence SEQ ID NO:18, provided the amino acid at residue 424 is not tryptophan.
Two assays were used to measure ligase activity, one spectrophotometric and one using high-performance liquid chromatography (HPLC). A discontinuous assay was used to measure substrate-dependent disappearance of CoA at 75° C. The reaction mixture (600 μl) contained 100 mM MOPS-KOH (pH 7.9), 5 mM MgCl2, 2.5 mM ATP, 0.15 mM CoA, and purified enzyme. At each time point, 80 μl of reaction mixture was added to 80 μl cold 5,5′-dithiobis-(2-nitrobenzoic acid) (DTNB). A time point (0 min) was taken before heating. The reaction mixture was incubated for 2 min at 75° C., followed by addition of substrate. Additional time points were taken at 30, 60, 90, 120, and 180 sec after addition of substrate. Absorbance was measured at 412 nm to determine free CoA concentration, based on the concentration of 2-nitro-5-thiobenzoate dianion (NTB^2−) (ε412=14,150 M^−1 cm^−1) (Hawkins et al., 2011, ACS Catal. 1, 1043-1050, Riddles et al., 1983, Methods in Enzymology 91, 49-60). Enzymes were kinetically characterized by varying the concentration of the […] substrate from 0.05 mM to 12 mM, while the other substrate concentrations were held constant. Measurements for specific activity were taken under saturating substrate concentrations (10 mM). Formation of the CoA ester was also confirmed using HPLC (Waters). The reaction mixture (0.15 ml) contained 100 mM potassium phosphate (pH 7.9), 10 mM MgCl2, 2 mM ATP, 0.5 mM CoA, 10 mM substrate, and purified enzyme. The reaction was incubated for 3 min at 75° C., quenched with 15 μl 1M HCl, filtered with a 10 kDa spin column (Amicon YM-10) to remove the protein, and loaded onto a reversed-phase C18 silica-based column (Shodex C18-4E, 4.6×250 mm). The mobile phase was 50 mM sodium phosphate buffer (pH 6.7) with 2% methanol.
M. sedula genes encoding acyl-CoA synthetases were amplified from genomic DNA using primers synthesized by Integrated DNA Technologies (Coralville, Iowa). […]

[2] = tested on: CC(C)(COP(=O)(O)OP(=O)(O)OC[C@H]1O[C@@H](n2cnc3c(N)ncnc32)[C@H](O)[C@@H]1OP(=O)(O)O)[C@@H](O)C(=O)NCCC(=O)NCCSC(=O)CCCO; assay: 4-hydroxybutyryl-CoA dehydratase (Msed_1321), coupled spectrophotometric assay; type: biochemical, Metallosphaera sedula; settings: other: Msed_1321, 70° C.
From the text: A polypeptide having 4-hydroxybutyryl-CoA dehydratase activity means the polypeptide catalyzes the conversion of 4-hydroxybutyryl-CoA to crotonyl-CoA. The 4-hydroxybutyryl-CoA dehydratase activity of a polypeptide may be determined by routine methods known in the art. An example of such a polypeptide includes an amino acid sequence encoded by coding sequence Msed_1321 of Genbank accession NC_009440 and disclosed at SEQ ID NO:15.
Heterologous expression of M. sedula genes in E. coli. Msed_0406, Msed_1321, Msed_0399, and Msed_0656 were amplified from genomic DNA using primers from IDT Technologies (Coralville, Iowa). Msed_0406 was cloned into pET46-Ek/LIC with an N-terminal His6 tag, as described in Example 1. Msed_1321 was cloned with an N-terminal His6 tag into a modified pETA vector, into which the anaerobic hya promoter from E. coli had been inserted to allow for anaerobically-regulated expression (Sun et al., 2010. PLoS One 5:e10526). Msed_0399 was cloned into pET21b without a His-tag, and Msed_0656 was cloned into pCDF-Ek/LIC with an N-terminal His6 tag. All four constructs were individually cloned into NovaBlue GigaSingles E. coli competent cells and selected by growth on LB-agar supplemented with antibiotic. Sequences were confirmed by Eton Biosciences, Inc. (Durham, N.C.). Next, the plasmids were transformed into E. coli Rosetta 2 (DE3) cells for protein expression. Rosetta strains containing pET46-0406, pET21b-0399, and pCDF-0656 were grown and expressed aerobically at 37° C. for 16 h in Studier's auto-inducing medium ZYM-5052 (Studier, 2005. Protein Expression and Purification 41:207-234). Rosetta cells containing pETA-1321 plasmid were grown in a 2 L Applikon bioreactor (37° C., 800 rpm, pH 6.7, 0.5 slpm air) in Studier's non-inducing medium ZYM-505 with 0.5 mM FeCl3. […]
4-hydroxybutyryl-CoA dehydratase (Msed_1321). […] Enzyme activity was measured […] in a coupled spectrophotometric assay at 70° C. […]

[3] = CoA synthetase assay (DTNB), substrate propionate; type: biochemical; settings: saturating substrate concentrations
Protocol: Two assays were used to measure ligase activity, one spectrophotometric and one using high-performance liquid chromatography (HPLC). A discontinuous assay was used to measure substrate-dependent disappearance of CoA at 75° C. The reaction mixture (600 μl) contained 100 mM MOPS-KOH (pH 7.9), 5 mM MgCl2, 2.5 mM ATP, 0.15 mM CoA, and purified enzyme. At each time point, 80 μl of reaction mixture was added to 80 μl cold 5,5′-dithiobis-(2-nitrobenzoic acid) (DTNB). A time point (0 min) was taken before heating. The reaction mixture was incubated for 2 min at 75° C., followed by addition of substrate. Additional time points were taken at 30, 60, 90, 120, and 180 sec after addition of substrate. Absorbance was measured at 412 nm to determine free CoA concentration, based on the concentration of 2-nitro-5-thiobenzoate dianion (NTB^2−) (ε412=14,150 M^−1 cm^−1) (Hawkins et al., 2011, ACS Catal. 1, 1043-1050, Riddles et al., 1983, Methods in Enzymology 91, 49-60). Enzymes were kinetically characterized by varying the concentration of the acyl-CoA substrate from 0.05 mM to 12 mM, while the other substrate concentrations were held constant. Measurements for specific activity were taken under saturating substrate concentrations (10 mM). Formation of the CoA ester was also confirmed using HPLC (Waters). […]

[4] = 4-hydroxybutyrate-CoA synthetase assay (DTNB; HPLC confirmation); type: biochemical
Protocol: A time point (0 min) was taken before heating.
The soluble, heat-treated lysate was loaded onto the column with binding buffer (50 mM sodium phosphate, 300 mM NaCl, 20 mM imidazole, pH 7.4) and the his-tagged enzyme removed with elution buffer (50 mM sodium phosphate, 300 mM NaCl, 500 mM imidazole, pH 7.4).

[5] = substrate: CC(=O)O; assay: purified protein, by the assay type; settings: other: Msed_0406, 75° C., pH 7.9; 75.0 °C
[6] = substrate: CCC(=O)O; assay: purified protein, by the assay type; settings: other: Msed_0406, 75° C., pH 7.9; 75.0 °C
[7] = substrate: CCCC(=O)O; assay: purified protein, by the assay type; settings: other: Msed_0406, 75° C., pH 7.9; 75.0 °C
Protocol: (§1) Two assays were used to measure ligase activity, one spectrophotometric and one using high-performance liquid chromatography (HPLC). A discontinuous assay was used to measure substrate-dependent disappearance of CoA at 75° C. The reaction mixture (600 μl) contained 100 mM MOPS-KOH (pH 7.9), 5 mM MgCl2, 2.5 mM ATP, 0.15 mM CoA, and purified enzyme. At each time point, 80 μl of reaction mixture was added to 80 μl cold 5,5′-dithiobis-(2-nitrobenzoic acid) (DTNB). A time point (0 min) was taken before heating. The reaction mixture was incubated for 2 min at 75° C., followed by addition of substrate. Additional time points were taken at 30, 60, 90, 120, and 180 sec after addition of substrate. Absorbance was measured at 412 nm to determine free CoA concentration, based on the concentration of 2-nitro-5-thiobenzoate dianion (NTB^2−) (ε412=14,150 M^−1 cm^−1) (Hawkins et al., 2011, ACS Catal. 1, 1043-1050, Riddles et al., 1983, Methods in Enzymology 91, 49-60). Enzymes were kinetically characterized by varying the concentration of the acyl-CoA substrate from 0.05 mM to 12 mM, while the other substrate concentrations were held constant. Measurements for specific activity were taken under saturating substrate concentrations (10 mM). Formation of the CoA ester was also confirmed using HPLC (Waters). The reaction mixture (0.15 ml) contained 100 mM potassium phosphate (pH 7.9), 10 mM MgCl2, 2 mM ATP, 0.5 mM CoA, 10 mM substrate, and purified enzyme. The reaction was incubated for 3 min at 75° C., quenched with 15 μl 1M HCl, filtered with a 10 kDa spin column (Amicon YM-10) to remove the protein, and loaded onto a reversed-phase C18 silica-based column (Shodex C18-4E, 4.6×250 mm). The mobile phase was 50 mM sodium phosphate buffer (pH 6.7) with 2% methanol.

[8] = substrate: CCCCC(=O)O; assay: purified protein, by the assay type; settings: other: Msed_0406, 75° C., pH 7.9; 75.0 °C
[9] = substrate: O=C(O)CCCO; assay: purified protein, by the assay type
Protocol: as §1

[10] = substrate: O=C(O)CCO; assay: purified protein, by the assay type; settings: other: Msed_0406, 75° C., pH 7.9; 75.0 °C
Protocol: as §1

[11] = other: Msed_0406, 75° C., pH 7.9, 75.0 °C

For `[HH]` [hydrogen], the solubility [1] is given as 600 µM (≈ 1.21 µg/mL).

In the case of `O=O` [oxygen], the solubility [1] is given as 600 µM (≈ 19.2 µg/mL).

With “Metallosphaera sedula acetate/propionate synthetase Msed_1353 variant Msed_1353-G424 (Trp424 to Gly, W424G), SEQ ID NO:18 (Metallosphaera sedula DSM 5348; W424G)” the Km (O=C(O)CCCO) was 1130 µM, the Vmax (O=C(O)CCCO) was 2.3 µmol/min/mg and the kcat (O=C(O)CCCO) was 2.5 s⁻¹. The kcat/Km (O=C(O)CCCO) was 2180 M⁻¹ s⁻¹.

“Metallosphaera sedula 4-hydroxybutyryl-CoA dehydratase Msed_1321, SEQ ID NO:15, recombinant (Metallosphaera sedula DSM 5348)” showed a Km [2] of 150 µM, a Vmax [2] of 2.2 µmol/min/mg and a kcat [2] of 2.1 s⁻¹.

B1: Metallosphaera sedula acyl-CoA synthetase (4-hydroxybutyrate:CoA ligase) Msed_0406, SEQ ID NO:14, recombinant (Metallosphaera sedula DSM 5348) (protein)
chain: MVTVQDFFRKFIEFQNSPNEKSLQEIVKLVGQLDLRRFNWVRDVFEDIHVKERGSKTALIWRDINTGEEAKLSYHELSLMSNRVLSTLRKHGLKKGDVVYLMTKVHPMHWAVFLAVIKGGFVMVPSATNLTVAEMKYRFSDLKPSAIISDSLRASVMEEALGSLKVEKFLIDGKRETWNSLEDESSNAEPEDTRGEDVIINYFTSGTTGMPKRVIHTAVSYPVGSITTASIVGVRESDLHLNLSATGWAKFAWSSFFSPLLVGATVVGINYEGKLDTRRYLGEVENLGVTSFCAPPTAWRQFITLDLDQFRFERLRSVVSAGEPLNPEVIKIWKDKFNLTIRDFYGQTETTAMVGNFPFLKVKPGSMGKPHPLYDIRLLDDEGKEITKPYEVGHITVKLNPRPIGLFLGYSDEKKNMESFREGYYYTGDKAYFDEEGYFYFVGRGDDVIKTSDYRVGPFEVESALLEHPAVAEAAVVGVPDTVRWQLVKAYIVLKKGYMPSKELAEEIREKMKTLLSPYKVPRIIEFVDELPKTISGKIRRVELRKREEEKRKKGEVGQNEYVF
With B1 the specific activity [3] was 15.1 µmol/min/mg, the specific activity ([4]; 4HB, saturating substrate concentrations) was 1.8 µmol/min/mg and the “production of 4HB-CoA from 4HB and CoA” value ([4]; reversed-phase HPLC) was “confirmed”. The “rate of ligation of CoA to 4HB” value ([4]; substrate 4HB) was 1.69 µmol·min/mg, the Km [5] was 2030 µM and the Vmax [5] was 6 µmol/min/mg. For the same molecule, the kcat [5] was 6.4 s⁻¹, the kcat/Km [5] was 3200 M⁻¹ s⁻¹ and the Km [6] was 380 µM. The Vmax [6] was 15.1 µmol/min/mg, the kcat [6] was 16.2 s⁻¹ and the kcat/Km [6] was 43000 M⁻¹ s⁻¹. It also gave a Km [7] of 320 µM, a Vmax [7] of 7.9 µmol/min/mg and a kcat [7] of 8.4 s⁻¹. The kcat/Km [7] was 26000 M⁻¹ s⁻¹, the Km [8] was 740 µM and the Vmax [8] was 5.2 µmol/min/mg. It also gave a kcat [8] of 5.6 s⁻¹, a kcat/Km [8] of 7500 M⁻¹ s⁻¹ and a Km [9, 11] of 2000 µM. It also gave a Vmax [9, 11] of 1.7 µmol/min/mg, a kcat [9, 11] of 1.8 s⁻¹ and a kcat/Km [9, 11] of 910 M⁻¹ s⁻¹. It also gave a Km ([9]; other: Msed_0406, text) of 1900 µM, a Km [10] of 810 µM and a Vmax [10] of 2.4 µmol/min/mg. The kcat [10] was 2.6 s⁻¹ and the kcat/Km [10] was 3200 M⁻¹ s⁻¹.
